# Patent US20240158459A1 (KYVERNA THERAPEUTICS, published 2024)
# T1: biotinylated-MADCAM-1 antigen (human, UniProt Q13477 19-317, limits assumed, biotinylated (site not stated))
# T1 construct: The BLI paragraph says only 'biotinylated-MADCAM-1 antigen'; also called mucosal addressin cell adhesion molecule 1
# T1 sequence (looked up): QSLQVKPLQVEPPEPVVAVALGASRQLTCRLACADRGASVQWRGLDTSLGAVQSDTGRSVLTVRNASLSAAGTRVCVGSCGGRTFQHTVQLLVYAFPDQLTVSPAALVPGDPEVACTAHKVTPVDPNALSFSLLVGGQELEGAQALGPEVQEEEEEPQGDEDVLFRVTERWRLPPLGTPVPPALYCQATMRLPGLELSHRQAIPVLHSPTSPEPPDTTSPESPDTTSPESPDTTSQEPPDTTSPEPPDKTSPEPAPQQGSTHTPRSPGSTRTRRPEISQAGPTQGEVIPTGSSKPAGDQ
# Molecular target: T1, biotinylated-MADCAM-1 antigen
# Test: BLI, biotinylated MADCAM-1 on streptavidin biosensors, scFv titrated, global 1:1 fit
# Experimental: Binding affinity (KD) of MADCAM-1 scFv antibodies from Table 2 was measured using biolayer interferometry (See also FIG. 6). Streptavidin biosensors were loaded for 5 seconds with 10 Tg/mL biotinylated-MADCAM-1 antigen followed by acquisition of the baseline signal in phosphate buffer saline supplemented with bovine serum albumin and sodium azide. For the association step loaded probes were incubated for 250 seconds with a titration of anti-MADCAM-1 scFv antibodies at concentrations generally between 0 nM and 2 TM. This was followed by a dissociation step in buffer lacking anti-MADCAM-1 scFv for 250 seconds. Experimental data was normalized to a reference probe and high-frequency noise was removed by Savitzky-Golay filtering. On and off-rate constants were determined using a globally fitted 1:1 binding model.
Binder,Kd [nM],koff [s⁻¹],kon [M⁻¹ s⁻¹]
"MAdCAM1 scFv 17.7 (scFv, Humanized rabbit-derived scFv, VH-(G4S)3-VL) scFv: EVQLVESGGGLVKPGGSLRLSCAASGFSFSSTYYMCWVRQAPGKGLEWVSCIYTGSGNTDYASWAKGRFTISRDNAKNSLYLQMNSLRAEDTAVYYCARGGIVDSYFTYFDLWGQGTLVTVSSGGGGSGGGGSGGGGSDIQMTQSPSTLSASVGDRVTITCQASESIFSNLAWYQQKPGKAPKLLIYWASTLASGVPSRFSGSGSGTEFTLTISSLQPDDFATYYCQSYVYSSSSSNDFGGGTKVEIK",1.8,0.000537,300000
"MAdCAM1 scFv 17.3 (scFv, Humanized rabbit-derived scFv, VH-(G4S)3-VL) scFv: QVQLLESGGGLVKPGGSLRLSCAASGFSFSSTYYMCWIRQAPGKGLEWVSCIYTGSGNTDYASWAKGRFTISRDNAKNSLYLQMNSLRAEDTAVYYCARGGIVDSYFTYFDLWGQGTLVTVSSGGGGSGGGGSGGGGSDIQMTQSPSTLSASVGDRVTITCQASESIFSNLAWYQQKPGKAPKLLIYWASTLASGVPSRFSGSGSGTEFTLTISSLQPDDFATYYCQSYVYSSSSSNDFGGGTKVEIK",2.9,0.000868,304000
"MAdCAM1 scFv 17.5 (scFv, Humanized rabbit-derived scFv, VH-(G4S)3-VL) scFv: QVQLVESGGGVVQPGRSLRLSCAASGFSFSSTYYMCWVRQAPGKGLEWVACIYTGSGNTDYASWAKGRFTISRDNSTNTLFLQMNSLRAEDTAVYYCARGGIVDSYFTYFDLWGQGTLVTVSSGGGGSGGGGSGGGGSDIQMTQSPSTLSASVGDRVTITCQASESIFSNLAWYQQKPGKAPKLLIYWASTLASGVPSRFSGSGSGTEFTLTISSLQPDDFATYYCQSYVYSSSSSNDFGGGTKVEIK",3.7,0.000967,258000
"MAdCAM1 scFv 17.1 (scFv, Humanized rabbit-derived scFv, VH-(G4S)3-VL) scFv: EVQLVESGGGLVQPGGSLRLSCAASGFSFSSTYYMCWVRQAPGKGLEWVSCIYTGSGNTDYASWAKGRFTISRHNSKNTLYLQMNSLRAEDTAVYYCARGGIVDSYFTYFDLWGQGTLVTVSSGGGGSGGGGSGGGGSDIQMTQSPSTLSASVGDRVTITCQASESIFSNLAWYQQKPGKAPKLLIYWASTLASGVPSRFSGSGSGTEFTLTISSLQPDDFATYYCQSYVYSSSSSNDFGGGTKVEIK",2.3,0.000568,247000
"MAdCAM1 scFv 32.6 (scFv, Humanized rabbit-derived scFv, VH-(G4S)3-VL) scFv: QVQLVESGGGVVQPGRSLRLSCAASGFSFSSSYWICWVRQAPGKGLEWVACIYGGSSGATYYANWAKGRFTISRDNSTNTLFLQMNSLRAEDTAVYYCARSGSTTSGGVYRWYFNLWGQGTLVTVSSGGGGSGGGGSGGGGSDIQMTQSPSSLSASVGDRVTITCQASENIYNLLAWYQQKPGKAPKLLIYDASNLETGVPSRFSGSGSGTDFTFTISSLQPEDIATYYCQFTYYGGTYESAFGGGTKVEIK",6.7,0.00219,327000
"MAdCAM1 scFv 32.3 (scFv, Humanized rabbit-derived scFv, VH-(G4S)3-VL) scFv: EVQLLESGGGLVQPGGSLRLSCAASGFSFSSSYWICWVRQAPGKGLEWVSCIYGGSSGATYYANWAKGRFTISRDNSKNTLYLQMNSLRAEDTAVYYCARSGSTTSGGVYRWYFNLWGQGTLVTVSSGGGGSGGGGSGGGGSDIQMTQSPSSLSASVGDRVTITCQASENIYNLLAWYQQKPGKVPKLLIYDASTLQSGVPSRFSGSGSGTDFTLTISSLQPEDVATYYCQFTYYGGTYESAFGGGTKVEIK",12.1,0.00491,407000
"MAdCAM1 scFv 32.7 (scFv, Humanized rabbit-derived scFv, VH-(G4S)3-VL) scFv: EVQLVESGGGLVQPGGSLRLSCAASGFSFSSSYWICWVRQAPGKGLEWVSCIYGGSSGATYYANWAKGRFTISRHNSKNTLYLQMNSLRAEDTAVYYCARSGSTTSGGVYRWYFNLWGQGTLVTVSSGGGGSGGGGSGGGGSDIQMTQSPSSLSASVGDRVTITCQASENIYNLLAWYQQKPGKVPKLLIYDASTLQSGVPSRFSGSGSGTDFTLTISSLQPEDVATYYCQFTYYGGTYESAFGGGTKVEIK",23.8,0.00991,416000
"MAdCAM1 scFv 32.5 (scFv, Humanized rabbit-derived scFv, VH-(G4S)3-VL) scFv: QVQLVESGGGVVQPGRSLRLSCAASGFSFSSSYWICWVRQAPGKGLEWVACIYGGSSGATYYANWAKGRFTISRDNSTNTLFLQMNSLRAEDTAVYYCARSGSTTSGGVYRWYFNLWGQGTLVTVSSGGGGSGGGGSGGGGSDIQMTQSPSSLSASVGDRVTITCQASENIYNLLAWYQQKPGKVPKLLIYDASTLQSGVPSRFSGSGSGTDFTLTISSLQPEDVATYYCQFTYYGGTYESAFGGGTKVEIK",5.4,0.00146,272000
"MAdCAM1 scFv 32.4 (scFv, Humanized rabbit-derived scFv, VH-(G4S)3-VL) scFv: EVQLLESGGGLVQPGGSLRLSCAASGFSFSSSYWICWVRQAPGKGLEWVSCIYGGSSGATYYANWAKGRFTISRDNSKNTLYLQMNSLRAEDTAVYYCARSGSTTSGGVYRWYFNLWGQGTLVTVSSGGGGSGGGGSGGGGSDIQMTQSPSSLSASVGDRVTITCQASENIYNLLAWYQQKPGKAPKLLIYDASNLETGVPSRFSGSGSGTDFTFTISSLQPEDIATYYCQFTYYGGTYESAFGGGTKVEIK",18.7,0.0108,577000
"MAdCAM1 scFv 32.8 (scFv, Humanized rabbit-derived scFv, VH-(G4S)3-VL) scFv: EVQLVESGGGLVQPGGSLRLSCAASGFSFSSSYWICWVRQAPGKGLEWVSCIYGGSSGATYYANWAKGRFTISRHNSKNTLYLQMNSLRAEDTAVYYCARSGSTTSGGVYRWYFNLWGQGTLVTVSSGGGGSGGGGSGGGGSDIQMTQSPSSLSASVGDRVTITCQASENIYNLLAWYQQKPGKAPKLLIYDASNLETGVPSRFSGSGSGTDFTFTISSLQPEDIATYYCQFTYYGGTYESAFGGGTKVEIK",15.5,0.0083,534000
"MAdCAM1 scFv 8.2 (scFv, Humanized rabbit-derived scFv, VH-(G4S)3-VL) scFv: EVQLVESGGGLVQPGGSLRLSCAASGFTLSSSYYMYWVRQAPGKGLEWVSVIYAGDGNTYYASWAKGRFTISRDNSKNTLYLQMNSLRAEDTAVYYCARGYVGYGYAIDLWGQGTLVTVSSGGGGSGGGGSGGGGSAIQLTQSPSSLSASVGDRVTITCQASQSIYSSLAWYQQKPGKAPKLLIYYASILPSGVPSRFSGSGSGTDFTLTISSLQPEDFATYYCQATTYDSTYPNAFGGGTKVEIK",78,0.00295,37800
"MAdCAM1 scFv 8.7 (scFv, Humanized rabbit-derived scFv, VH-(G4S)3-VL) scFv: EVQLVETGGGLIQPGGSLRLSCAASGFTLSSSYYMYWVRQAPGKGLEWVSVIYAGDGNTYYASWAKGRFTISRDNSKNTLYLQMNSLRAEDTAVYYCARGYVGYGYAIDLWGQGTLVTVSSGGGGSGGGGSGGGGSDIQMTQSPSTLSASVGDRVTITCQASQSIYSSLAWYQQKPGKAPKLLIYYASILPSGVPSRFSGSGSGTEFTLTISSLQPDDFATYYCQATTYDSTYPNAFGGGTKVEIK",258,0.00428,16600
"MAdCAM1 scFv 8.4 (scFv, Humanized rabbit-derived scFv, VH-(G4S)3-VL) scFv: EVQLLESGGGLVQPGGSLRLSCAASGFTLSSSYYMYWVRQAPGKGLEWVSAIYAGDGNTYYASWAKGRFTISRDNSKNTLYLQMNSLRAEDTAVYYCARGYVGYGYAIDLWGQGTLVTVSSGGGGSGGGGSGGGGSAIQLTQSPSSLSASVGDRVTITCQASQSIYSSLAWYQQKPGKAPKLLIYYASILPSGVPSRFSGSGSGTDFTLTISSLQPEDFATYYCQATTYDSTYPNAFGGGTKVEIK",30.9,0.000393,12700
"MAdCAM1 scFv 8.8 (scFv, Humanized rabbit-derived scFv, VH-(G4S)3-VL) scFv: EVQLVETGGGLIQPGGSLRLSCAASGFTLSSSYYMYWVRQAPGKGLEWVSVIYAGDGNTYYASWAKGRFTISRDNSKNTLYLQMNSLRAEDTAVYYCARGYVGYGYAIDLWGQGTLVTVSSGGGGSGGGGSGGGGSAIQLTQSPSSLSASVGDRVTITCQASQSIYSSLAWYQQKPGKAPKLLIYYASILPSGVPSRFSGSGSGTDFTLTISSLQPEDFATYYCQATTYDSTYPNAFGGGTKVEIK",311,0.00696,22400
"MAdCAM1 scFv 8.5 (scFv, Humanized rabbit-derived scFv, VH-(G4S)3-VL) scFv: QVQLVESGGGVVQPGRSLRLSCAASGFTLSSSYYMYWVRQAPGKGLEWVAVIYAGDGNTYYASWAKGRFTISRDNSKNTLYLQMNSLRAEDTAVYYCARGYVGYGYAIDLWGQGTLVTVSSGGGGSGGGGSGGGGSDIQMTQSPSTLSASVGDRVTITCQASQSIYSSLAWYQQKPGKAPKLLIYYASILPSGVPSRFSGSGSGTEFTLTISSLQPDDFATYYCQATTYDSTYPNAFGGGTKVEIK",114,0.00158,13800
"MAdCAM1 scFv 8.6 (scFv, Humanized rabbit-derived scFv, VH-(G4S)3-VL) scFv: QVQLVESGGGVVQPGRSLRLSCAASGFTLSSSYYMYWVRQAPGKGLEWVAVIYAGDGNTYYASWAKGRFTISRDNSKNTLYLQMNSLRAEDTAVYYCARGYVGYGYAIDLWGQGTLVTVSSGGGGSGGGGSGGGGSAIQLTQSPSSLSASVGDRVTITCQASQSIYSSLAWYQQKPGKAPKLLIYYASILPSGVPSRFSGSGSGTDFTLTISSLQPEDFATYYCQATTYDSTYPNAFGGGTKVEIK",84.8,0.00218,25700
"MAdCAM1 scFv 8.1 (scFv, Humanized rabbit-derived scFv, VH-(G4S)3-VL) scFv: EVQLVESGGGLVQPGGSLRLSCAASGFTLSSSYYMYWVRQAPGKGLEWVSVIYAGDGNTYYASWAKGRFTISRDNSKNTLYLQMNSLRAEDTAVYYCARGYVGYGYAIDLWGQGTLVTVSSGGGGSGGGGSGGGGSDIQMTQSPSTLSASVGDRVTITCQASQSIYSSLAWYQQKPGKAPKLLIYYASILPSGVPSRFSGSGSGTEFTLTISSLQPDDFATYYCQATTYDSTYPNAFGGGTKVEIK",89.9,0.00186,20700
